# In article PMC6449940, “The Cdc42 effectors Gic1 and Gic2 regulate polarized post-Golgi secretion” (Cell & Bioscience, 2019):
# B1: GST-Sec3N (a.a.71–241) (domain or fragment, S. cerevisiae (budding yeast), UniProt P33332 71-241, looked up)
# chain: SSQTSNFLAEQYERDRKAIINCCFSRPDHKTGEPPNNYITHVRIIEDSKFPSSRPPPDSKLENKKKRLLILSAKPNNAKLIQIHKARENSDGSFQIGRTWQLTELVRVEKDLEISEGFILTMSKKYYWETNSAKERTVFIKSLITLYIQTFEGHVPELVNWDLSLFYLDER
# notes: Sec3, exocyst subunit, budding yeast, residues 71-241 (N-terminus, PH domain-like region); also called Amino-terminus of Sec3 (a.a.71–241); source: GST fusion protein, purified and conjugated to glutathione Sepharose
# Target: T1, His6-Cdc42 (S. cerevisiae, UniProt P19073 1-191)
# T1 construct: Cdc42, small GTPase, S. cerevisiae; also called Hisx6-Cdc42; Cdc42 wild type; source: bacteria, purified (Hisx6 fusion)
# T1 sequence (P19073 whole entry, the tested form may be a part): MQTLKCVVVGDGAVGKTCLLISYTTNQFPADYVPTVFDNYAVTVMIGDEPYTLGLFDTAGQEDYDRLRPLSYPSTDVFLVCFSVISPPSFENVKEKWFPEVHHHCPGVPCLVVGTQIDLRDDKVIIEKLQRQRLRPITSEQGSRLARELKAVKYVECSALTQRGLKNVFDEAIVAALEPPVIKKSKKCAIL
# Assay: pull-down; GST-Sec3N (a.a.71–241) on glutathione Sepharose (20 μg), His6-Cdc42 or mutant (10 μg) in the presence of GTPγS; bound protein detected with anti-Hisx6 antibody
# Details: both partners purified
binder,measurement,value
B1,binding result,binds
